# Measurements from paper PMC9636575, “MqsR is a noncanonical microbial RNase toxin that is inhibited by antitoxin MqsA via steric blockage of substrate binding” (The Journal of Biological Chemistry, 2022).
# B1: N-terminal toxin-binding domain of MqsA (residues 1-76) (domain or fragment)
# chain: MKCPVCHQGEMVSGIKDIPYTFRGRKTVLKGIHGLYCVHCEESIMNKEESDAFMAQVKAFRASVNAETVAPEFIVK
# notes: also called MqsA_(1-76); unlabeled MqsA_(1-76)
# Target: T1, MqsR (E. coli, UniProt Q46865 1-98)
# T1 construct: also called MqsR toxin; 15N-labeled MqsR
# T1 sequence (Q46865 whole entry): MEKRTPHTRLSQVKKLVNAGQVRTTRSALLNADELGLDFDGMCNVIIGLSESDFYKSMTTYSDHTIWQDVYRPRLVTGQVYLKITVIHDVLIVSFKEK
# Experiment: NMR titration; unlabeled MqsA(1-76) titrated into 15N-labeled MqsR (50 uM); 2D [1H,15N] HSQC; 298 K; 50 mM NaCl, 20 mM Na phosphate pH 6.5, 0.5 mM TCEP, 10% D2O
# Settings: both partners purified
binder,measurement,value
B1,binding result,binds
